Literature values in publication PMC6423427.

Target: BiP (Homo sapiens) (UniProt P11021)
UniProt P11021, sequence (P11021 19-654): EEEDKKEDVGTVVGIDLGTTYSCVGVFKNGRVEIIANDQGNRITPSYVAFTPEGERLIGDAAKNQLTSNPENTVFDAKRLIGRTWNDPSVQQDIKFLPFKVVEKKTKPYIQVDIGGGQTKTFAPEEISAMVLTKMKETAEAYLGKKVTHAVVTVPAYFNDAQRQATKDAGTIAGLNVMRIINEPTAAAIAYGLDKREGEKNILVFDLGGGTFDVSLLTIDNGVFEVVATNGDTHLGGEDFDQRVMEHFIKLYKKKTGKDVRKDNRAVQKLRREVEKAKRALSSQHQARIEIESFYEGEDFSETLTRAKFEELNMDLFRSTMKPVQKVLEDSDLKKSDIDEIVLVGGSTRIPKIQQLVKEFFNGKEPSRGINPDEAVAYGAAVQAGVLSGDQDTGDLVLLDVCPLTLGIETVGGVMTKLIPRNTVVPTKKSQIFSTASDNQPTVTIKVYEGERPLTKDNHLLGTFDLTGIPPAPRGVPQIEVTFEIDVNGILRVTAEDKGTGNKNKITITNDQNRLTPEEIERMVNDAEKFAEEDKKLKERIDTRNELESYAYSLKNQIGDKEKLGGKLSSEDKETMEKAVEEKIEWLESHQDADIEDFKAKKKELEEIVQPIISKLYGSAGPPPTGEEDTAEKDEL

Kd: 1500 nM
Substance: IRE1 LD (from UniProt O75460)
